{
  "source": "paper PMC5038328",
  "about": "“IMP-27, a Unique Metallo-β-Lactamase Identified in Geographically Distinct Isolates of Proteus mirabilis” (Antimicrobial Agents and Chemotherapy, 2016)",
  "key": {"IMP-27 [1]": {"target": "T1, IMP-27 (Proteus mirabilis, UniProt F8UQX1)", "T1 construct": "gene PCR amplified from 2009 isolate DNA, pET-9a, E. coli BL21(DE3)/pLysS; KF501391 is the class 2 integron record", "T1 sequence (F8UQX1 entry or part of it)": "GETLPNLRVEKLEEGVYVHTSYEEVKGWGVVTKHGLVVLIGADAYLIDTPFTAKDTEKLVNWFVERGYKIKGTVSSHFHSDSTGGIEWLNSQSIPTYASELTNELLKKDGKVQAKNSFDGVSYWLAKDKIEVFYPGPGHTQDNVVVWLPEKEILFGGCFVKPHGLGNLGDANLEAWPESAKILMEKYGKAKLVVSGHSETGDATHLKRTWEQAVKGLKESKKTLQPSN", "test": "inhibition of nitrocefin hydrolysis, spectrophotometric initial rates", "format": "biochemical"}, "IMP-27 [2]": {"target": "T1, IMP-27", "test": "spectrophotometric initial rates", "format": "biochemical", "from_the_text": "spectrophotometric initial rates on IMP-27"}, "[3]": {"system": "CO/N=C(\\C(=O)N[C@@H]1C(=O)N2C(C(=O)O)=C(COC(C)=O)CS[C@H]12)c1csc(N)n1", "test": "spectrophotometric initial hydrolysis rates", "format": "biochemical, Proteus mirabilis", "from_the_text": "(§1) spectrophotometric initial hydrolysis rates on IMP-27"}, "[4]": {"system": "CO/N=C(\\C(=O)N[C@@H]1C(=O)N2C(C(=O)[O-])=C(C[N+]3(C)CCCC3)CS[C@H]12)c1csc(N)n1", "test": "spectrophotometric initial hydrolysis rates", "format": "biochemical, Proteus mirabilis", "from_the_text": "as §1"}, "[5]": {"system": "O=C(Cc1cccs1)N[C@@H]1C(=O)N2C(C(=O)O)=C(/C=C/c3ccc([N+](=O)[O-])cc3[N+](=O)[O-])CS[C@H]12", "test": "spectrophotometric initial hydrolysis rates", "format": "biochemical, Proteus mirabilis", "from_the_text": "as §1"}, "[6]": {"system": "CC(C)(O/N=C(\\C(=O)N[C@@H]1C(=O)N2C(C(=O)[O-])=C(C[n+]3ccccc3)CS[C@H]12)c1csc(N)n1)C(=O)O", "test": "spectrophotometric initial hydrolysis rates", "format": "biochemical, Proteus mirabilis", "from_the_text": "as §1"}, "[7]": {"system": "C[C@@H](O)[C@H]1C(=O)N2C(C(=O)O)=C(SCCN=CN)C[C@H]12", "test": "competition with nitrocefin hydrolysis, spectrophotometric", "format": "biochemical, Proteus mirabilis", "conditions": "Km measured as Ki with nitrocefin as reporter substrate", "from_the_text": "(§2) competition with nitrocefin hydrolysis, spectrophotometric on IMP-27"}, "[8]": {"system": "C[C@@H](O)[C@H]1C(=O)N2C(C(=O)O)=C(S[C@@H]3CN[C@H](C(=O)N(C)C)C3)[C@H](C)[C@H]12", "test": "competition with nitrocefin hydrolysis, spectrophotometric", "format": "biochemical, Proteus mirabilis", "conditions": "Km measured as Ki with nitrocefin as reporter substrate", "from_the_text": "as §2"}},
  "data": [
    {"compound": "O=C(O)CN(CCN(CC(=O)O)CC(=O)O)CC(=O)O", "note": "[EDTA]", "values": [
      {"measurement": "Ki", "setting": "IMP-27 [1]; read-out: Ki", "value": "11 ± 0.9", "unit": "mM"}
    ]},
    {"compound": "C[C@H]1[C@H](NC(=O)/C(=N\\OC(C)(C)C(=O)O)c2csc(N)n2)C(=O)N1S(=O)(=O)O", "note": "[aztreonam]", "values": [
      {"measurement": "Ki", "setting": "IMP-27 [2]", "value": "> 23", "unit": "mM"}
    ]},
    {"compound": "O=C(O)c1cccc(C(=O)O)n1", "note": "[dipicolinic acid]", "values": [
      {"measurement": "Ki", "setting": "IMP-27 [1]; read-out: Ki", "value": "4.6 ± 0.13", "unit": "mM"}
    ]},
    {"compound": "CCN1CCN(C(=O)N[C@@H](C(=O)N[C@@H]2C(=O)N3[C@@H]2SC(C)(C)[C@@H]3C(=O)O)c2ccccc2)C(=O)C1=O", "note": "[piperacillin]", "values": [
      {"measurement": "Ki", "setting": "IMP-27 [1]; read-out: IMP-27 / Km or Ki", "value": 3, "unit": "mM"}
    ]},
    {"compound": "IMP-27 (Proteus mirabilis)", "values": [
      {"measurement": "Km", "setting": "[3]", "value": "24 ± 1.9", "unit": "µM"},
      {"measurement": "kcat", "setting": "[3]", "value": "20 ± 0.66", "unit": "s⁻¹"},
      {"measurement": "kcat/Km", "setting": "[3]", "value": 860000, "unit": "M⁻¹ s⁻¹"},
      {"measurement": "Km", "setting": "[4]", "value": "53 ± 3.6", "unit": "µM"},
      {"measurement": "kcat", "setting": "[4]", "value": "8.1 ± 0.37", "unit": "s⁻¹"},
      {"measurement": "kcat/Km", "setting": "[4]", "value": 150000, "unit": "M⁻¹ s⁻¹"},
      {"measurement": "Km", "setting": "[5]", "value": "36 ± 3.1", "unit": "µM"},
      {"measurement": "kcat", "setting": "[5]", "value": "370 ± 15", "unit": "s⁻¹"},
      {"measurement": "kcat/Km", "setting": "[5]", "value": "1e+07", "unit": "M⁻¹ s⁻¹"},
      {"measurement": "Km", "setting": "[6]", "value": "54 ± 4.3", "unit": "µM"},
      {"measurement": "kcat", "setting": "[6]", "value": "0.7 ± 0.03", "unit": "s⁻¹"},
      {"measurement": "kcat/Km", "setting": "[6]", "value": 13000, "unit": "M⁻¹ s⁻¹"},
      {"measurement": "Km", "setting": "[7]", "value": "310 ± 19", "unit": "µM"},
      {"measurement": "kcat", "setting": "[7]", "value": "34 ± 0.38", "unit": "s⁻¹"},
      {"measurement": "kcat/Km", "setting": "[7]", "value": 110000, "unit": "M⁻¹ s⁻¹"},
      {"measurement": "Km", "setting": "[8]", "value": "2.3 ± 0.8", "unit": "µM"},
      {"measurement": "kcat", "setting": "[8]", "value": "3.4 ± 0.53", "unit": "s⁻¹"},
      {"measurement": "kcat/Km", "setting": "[8]", "value": "1.5e+06", "unit": "M⁻¹ s⁻¹"}
    ]}
  ]
}
